The results in this text go back to PMC4259882.

Data set [1] has as its target T1, FadR WT (Escherichia coli K12, UniProt P0A8V6 1-239). Nature of the data set: EMSA; Roche DIG gel shift binding buffer (composition not stated), 15 min, room temperature; 0.1 pmol (Fig. 3) or 0.2 pmol (Fig. 6) probe; 7-7.5% native PAGE. For orientation: Mobility shift assays separate free from complexed probe on a gel.
Data set [2] addresses T2, FadR K113 (W60G) (Escherichia coli strain K113, UniProt P0A8V6 1-239, W60G). Nature of the data set: EMSA; up to 2 pmol protein; Roche DIG gel shift binding buffer (composition not stated), 15 min, room temperature; 0.1 pmol (Fig. 3) or 0.2 pmol (Fig. 6) probe; 7-7.5% native PAGE.
Data set [3] deals with FadR F74G (Escherichia coli K12, UniProt P0A8V6 1-239, F74G). Nature of the data set: EMSA; up to 10 pmol protein; Roche DIG gel shift binding buffer (composition not stated), 15 min, room temperature; 0.1 pmol (Fig. 3) or 0.2 pmol (Fig. 6) probe; 7-7.5% native PAGE.
The target in data set [4] is FadR W75G (Escherichia coli K12, UniProt P0A8V6 1-239, W75G). Described as above.
Data set [5] has as its target FadR F74G/W75G (Escherichia coli K12, UniProt P0A8V6 1-239, F74G;W75G). The description is as above.
For data set [6], the target named is T2, FadR K113 (W60G). Described as above.
Data set [7] deals with T1, FadR WT. Nature of the data set: EMSA; dose-dependent, 0.05-10 pmol protein; Roche DIG gel shift binding buffer (composition not stated), 15 min, room temperature; 0.1 pmol (Fig. 3) or 0.2 pmol (Fig. 6) probe; 7-7.5% native PAGE.

B1: fadD probe 1 (dsDNA)
DNA 1: GAAACAGCGGCTGGTCCGCTGTTTCTGCATTCT
DNA 2: AGAATGCAGAAACAGCGGACCAGCCGCTGTTTC
On to B1, for which the binding result is recorded as “binds” in data set [1] and “no binding” in data set [2].

B2: fadL probe 1 (dsDNA)
DNA 1: GCAACATTCCAGCTGGTCCGACCTATACTCTCGCC
DNA 2: GGCGAGAGTATAGGTCGGACCAGCTGGAATGTTGC
In the case of B2, the binding result in data set [1] was “binds”; in data set [2], “no binding”.

B3: fadL probe 2 (dsDNA)
DNA 1: CTCTCGCCACTGGTCTGATTTCTAAGATGTACCTC
DNA 2: GAGGTACATCTTAGAAATCAGACCAGTGGCGAGAG
In the case of B3, the binding result in data set [1] is “binds”; in data set [2], “no binding”.

B4: fabB probe (dsDNA)
DNA 1: TCTATTAAATGGCTGATCGGACTTGTTCGGCGTACAAGTGTACGCTATTGTGCATTC
DNA 2: GAATGCACAATAGCGTACACTTGTACGCCGAACAAGTCCGATCAGCCATTTAATAGA
Take B4: the values for the binding result in data set [1] and in data set [2] were “binds” and “no binding”, respectively.

B5: fadBA probe (dsDNA)
DNA 1: ACTTCGACTCATCTGGTACGACCAGATCACCTTGCGG
DNA 2: CCGCAAGGTGATCTGGTCGTACCAGATGAGTCGAAGT
In the case of B5, the figures for the binding result in data set [1] and in data set [2] were “binds” and “no binding”, respectively.

B6: fadD probe 2 (dsDNA)
DNA 1: GTAATTATCAAGCTGGTATGATGAGTTAATATTATG
DNA 2: CATAATATTAACTCATCATACCAGCTTGATAATTAC
In the case of B6, the binding result is “no binding” in data set [3]; “no binding” in data set [4]; “no binding” in data set [5]; “no binding” in data set [6]; “binds” in data set [7].

B7: fabA probe (dsDNA)
DNA 1: TTTATTCCGAACTGATCGGACTTGTTCAGCGTACACGTGTTAGCTATCCTGCGTGC
DNA 2: GCACGCAGGATAGCTAACACGTGTACGCTGAACAAGTCCGATCAGTTCGGAATAAA
Take B7: the binding result was “binds” in data set [1] and “no binding” in data set [2].
